Measurements taken from publication PMC6127294, “Jungle Express is a versatile repressor system for tight transcriptional control” (Nature Communications, 2018).

Molecular target: the molecule itself
Experiment: crystal structure; EilR (selenomethionine-labeled) in complex with the duplexed eilOc operator oligonucleotide, 2:1 protein:DNA molar ratio; 0.1 M Li2SO4, 0.1 M MgCl2, 0.1 M HEPES pH 7.5, 20% PEG 3350, 10% hexanediol

B1: EilR (natural protein, Enterobacter lignolyticus)
chain: MGYLNREERRETIMQAAMRVALDQGFTGMTVRNIATAAGVAAGQVHHHFTSSGELKSQAFIRVIREMMDLQRLSRTAGWREQLFSALGSEDGRLEPYIRLWRQAQLLADSDPEIKSAYLLTMNLWHDEAVRIIRAGHAAGEFTLRDSAENIAWRLISLVCGLDGIYVLGMPEVDDAAFTRHLQHVIQLELFS
modifications: selenomethionine-labeled protein for the EilR-eilO crystal structure
notes: 21.6 kDa monomer; also called EilR repressor; EilR-His8 (before cleavage of the tag); source: E. coli harboring pLane-eilR, purified (His-Trap, TEV cleavage, second His-Trap flowthrough)
stoichiometry N: 2
